The record followed here is patent CN101899115A.

For experiment [1], the target named is CD3 (on Jurkat cells) (UniProt P07766). As to the kind of experiment: FACS, HIT3a alone on Jurkat cells, FITC anti-mouse IgG. For orientation: In flow cytometry, cells or beads pass a laser one at a time.
Experiment [2] concerns the target CD19 (on Raji cells) (UniProt P15391). As to the kind of experiment: FACS, HIT19a alone on Raji cells, FITC anti-mouse IgG.
For experiment [3], the target named is CD3 (on Jurkat cells) (UniProt P07766). As to the kind of experiment: FACS competition on Jurkat cells: ds-Diabody mixed with competitor HIT3a, HIT3a detected with FITC anti-mouse IgG.
The target of experiment [4] is CD19 (on Raji cells) (UniProt P15391). As to the kind of experiment: FACS competition on Raji cells: ds-Diabody mixed with competitor HIT19a, HIT19a detected with FITC anti-mouse IgG.

In the experiment with CD3 (on Jurkat cells) [1], 抗CD3鼠源性单克隆抗体HIT3a (antibody) showed a 细胞结合阳性率 of 100%.

抗CD19鼠源性单克隆抗体HIT19a (antibody) yielded a 细胞结合阳性率 with CD19 (on Raji cells) [2] of 100%.

B1: 二硫键稳定的抗CD3-抗CD19微型双功能抗体 (disulfide-stabilized anti-CD3/anti-CD19 diabody) (bispecific antibody)
chain 1: ADIELTQSPAIMSASPGEKVTMTCSASSSVSYMNWYQQKSGTSPKRWIYDTSKLASGVPARFSGSGSGTSYSLTISGMEAEDAATYYCQQWSSNPFTFGCGTKLELKRGGGGSQVQLQQSGAELVRPGSSVKISCKASGYAFSSYWMNWVKQRPGQGLEWIGQIYPGDGDTNYNGKFKGQATLTADKSSSTAYMQLSGLTSEDSAVYFCARKTISSVVDFYFDYWGQGTTLTVSS
chain 2: DIVLTQSPKFMSTSVGDRVSSPAKASQNVGTNVAWYQQKPGQSPKPLIYSATYRNSGVPDRFTGSGSGTDFTLTITNVQSKDLADYFCQQYNRYPYTSGGGTKLEIKRGGGGSQVQLQQSGAELARPGASVKMSCKASGYTFTRYTMHWVKQRPGQCLEWIGYINPSRGYTNYNQKFKDKATLTTDKSSSTAYMELTRLTSEDSAVYYCARYYDDHYSLDYWGQGTTVTVSS
The molecule B1 showed a 细胞结合阳性率 (HIT3a signal remaining with ds-Diabody present) with CD3 (on Jurkat cells) [3] of 51.1%. In addition, in the experiment with CD19 (on Raji cells) [4], the 细胞结合阳性率 (HIT19a signal remaining with ds-Diabody present) stood at 63.3%.
